In paper PMC4676704, “Functional Characterization of MC1R-TUBB3 Intergenic Splice Variants of the Human Melanocortin 1 Receptor” (PLoS ONE, 2015):

Biological target: T1, Flag-tagged Iso1, MC1R-TUBB3 in-frame intergenic splice chimera (human)
T1 construct: numbers count on: MC1R-002; Tubulin-β-III, human; A BamHI site in the TUBB3 part was ablated by site-directed mutagenesis (ATC to ATT by the printed primer, silent by my reading); also called Flag-Iso1; MC1R-TUBB3 chimeric isoform Iso1; source: HEK293T, transfected (pcDNA3); not shown: Flag, N-terminal, kept
Assay: radioligand binding; equilibrium competition binding on transfected HEK293T cells, 24 h after transfection, serum deprived 3 h; 125I-NDP-MSH 5x10^-11 M with unlabelled NDP-MSH from 10^-12 to 10^-7 M
Conditions: one partner purified

B1: [Nle4, D-Phe7]-αMSH (NDP-MSH), 125I-labelled (peptide)
chain: SYSLEHFRWGKPV
modifications: not fully specified; Nle at position 4; D-Phe at position 7; 125I label (tracer)
B1 showed a Kd of 0.59 nM.
